# Read-outs that look alike come from different tables or passages of the source.
# Key:
# [1] = molecular target: KS-PPT di-domain construct of the yeast FAS α-subunit (S. cerevisiae); assay: SEC; Superdex 200 Increase 30/100 GL column with calibration curve; KS-PPT di-domain construct
# [2] = molecular target: KS-PPT di-domain construct of the yeast FAS α-subunit (S. cerevisiae); assay: as above; remark: listed apart in the source
# [3] = molecular target: α_ΔMPT-ACP construct of the yeast FAS α-subunit (KS-PPT elongated N-terminally by DM1, DM2 and KR) (S. cerevisiae); assay: SEC; Superose 6 Increase 30/100 GL column, TRIS-HCl buffer N100; protein preparations from purifications under native and denaturing conditions (refolded)
substance,measurement,setting,value
KS-PPT di-domain construct of the yeast FAS α-subunit (domain or fragment),stoichiometry N,[1],2
same,stoichiometry N,[2],2.5
"α_ΔMPT-ACP construct of the yeast FAS α-subunit (KS-PPT elongated N-terminally by DM1, DM2 and KR) (domain or fragment)",stoichiometry N,[3],2

# From article PMC6972935
